# Patent publication US20220064648
# Where two headings read alike, the source gives them in different places.
# What was measured:
# [1] = molecular target: SNAP25 full length (Homo sapiens) (UniProt P60880); details: W indole-dU, X amine-dU, direct ELISA signal
# [2] = test system: Negative control random peptide; assay: ELONA; details: W indole, X amine
# Sequence of SNAP25 full length (Homo sapiens) (P60880 whole entry): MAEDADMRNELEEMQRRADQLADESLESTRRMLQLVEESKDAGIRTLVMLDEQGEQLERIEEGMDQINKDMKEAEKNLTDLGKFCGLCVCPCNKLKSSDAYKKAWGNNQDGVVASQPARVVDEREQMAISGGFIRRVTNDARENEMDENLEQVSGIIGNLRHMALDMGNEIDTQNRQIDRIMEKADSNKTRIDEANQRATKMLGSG
sequence,measurement,setting,value
TTTTTAACACGACACCACTGTGCCCACCACAGTTCACTGAAGTGGGCCCATG [PEP 3.14],binding signal,"[1]; Y phenol-dU [19,34 (phenol-dU), 38 (indole-dU)], negative peptide 52",8
TTTTTAACACGACAGCACTGTGCACAGCACAGCTCAAGGGTGTGGGCCCATG [PEP 3.10],binding signal,"[1]; Y phenol-dU [phenol-dU@19,34], negative peptide 51",10
TTTTTAACACGACAGCACTGTGGTTCGCGAACCTCAAGCTCGTCGTGCCATG [PEP 3.02],binding signal,"[2]; Y phenol modified dU [19Y,24W,25X,34Y,40W,43X,46Y]",59 ELISA signal
TTTTTAACACGACAGCCCTGTGCAGGCCGAACGGCGTTGATGTCGTGCCATG [PEP 4.12],binding signal,"[1]; Y phenol-dU [19,46 phenol-dU, 38 indole-dU, 43 amine-dU], negative peptide 3",0
TTTTTAACACGACATAGCTGTGACAGGCACAGGTCATGGGAGTCGTGCCATG [PEP 1.19],binding signal,"[1]; Y phenol-dU [phenol-dU @15,19,34,46, amine-dU @43], negative peptide 3",0
TTTTTAACACGACATAGGTTCGCTGGTCACAGAATGTTGTGGTGGGCCCATG [PEP 2.09],binding signal,"[1]; Y phenol-dU [15,19,20,24,27,35,38,40], negative peptide 5",9
TTTTTAACACGACATATGTTCGACGGACACAGTGTGTGGCGGTCGTGCCATG [PEP 4.09],binding signal,"[2]; Y phenol modified dU [15,17,19,20,35,43,46]",0 ELISA signal
TTTTTAACACGACATCACTGTGGAAGACACAGGACGTGCGTGTCGTGCCATG [PEP 3.22],binding signal,"[1]; Y phenol-dU [15,19,46 (phenol-dU), 43 (amine-dU)], negative peptide 26",7
TTTTTAACACGACCATCCTGTGCCTCACGAACTCATTGCCCGTCGTGCCATG [PEP 1.02],binding signal,"[2]; Y phenol modified dU [16,19,25,36,43,46]",15 ELISA signal
TTTTTAACACGACCATTCTGTGCCAGCCGAACTCCGTGCTGGTGGGCCCATG [PEP 4.08],binding signal,"[1]; Y phenol-dU [16,17,40 indole-dU, 19 phenol-dU], negative peptide 5",9
TTTTTAACACGACCGCCCTGTGGGCAACACAGGGATCTGCAGTCGTGCCATG [PEP 1.24],binding signal,"[1]; Y phenol-dU [phenol-dU @19,46, indole-dU @36,38, amine-dU @43], negative peptide 9",8
TTTTTAACACGACGCCAGTTCGAAGGTCACAGTTATTTGGCGTCGTGCCATG [PEP 1.11],binding signal,"[1]; Y phenol-dU [19 indole-dU, 20 phenol-dU, 27 amine-dU, 34 phenol-dU, 36 indole-dU, 38 indole-dU, 43 amine-dU, 46 phenol-dU], negative peptide 11",4
TTTTTAACACGACGCTCCTGTGACAGCCGAACATCATTGGTGTCGTGCCATG [PEP 1.04],binding signal,"[1]; Y phenol-dU [16 indole-dU, 19 phenol-dU, 34 phenol-dU, 38 indole-dU, 43 amine-dU, 46 phenol-dU], negative peptide 4",5
TTTTTAACACGACGTCGCTGTGGTCAACGAACAGATACAACGTCGTGCCATG [PEP 2.07],binding signal,"[1]; Y phenol-dU [15,19,24,36,43,46], negative peptide 17",8
TTTTTAACACGACGTGACTGTGAGAGGCACAGTTTGGGGGCGTGGGCCCATG [PEP 4.15],binding signal,"[1]; Y phenol-dU [15,19,34,35 phenol-dU], negative peptide 7",4
TTTTTAACACGACGTTACTGTGGTCACCACAGGATGAGCCTGTCGTGCCATG [PEP 2.01],binding signal,"[2]; Y phenol modified dU [15,16,19,24,35,43,46]",204 ELISA signal
TTTTTAACACGACGTTACTGTGGTCACCACAGGATGAGCTTGTCGTGCCATG [PEP 2.15],binding signal,"[1]; Y phenol-dU [15,16,19,24,35,40,43,46], negative peptide 9",0
TTTTTAACACGACGTTACTGTGGTCACCACAGGATGAGGCTGTCGTGCCATG [PEP 2.17],binding signal,"[1]; Y phenol-dU [phenol-dU@15,19,35,46, indole-dU@16,24, amine-dU@43], negative peptide 12",2
TTTTTAACACGACGTTACTGTGGTCATCACAGGATGAGCCTGTCGTGCCATG [PEP 2.18],binding signal,"[1]; Y phenol-dU [phenol-dU@15,19,35,46, indole-dU@16,24, amine-dU@27,43], negative peptide 9",0
TTTTTAACACGACTATTCTGTGAGTCTCGAACTGCGACAACGTGGGCCCATG [PEP 4.18],binding signal,"[1]; Y phenol-dU [14,16,17,19,25,27], negative peptide 4",10
TTTTTAACACGACTGCACTGTGAATCTCGAACGCATCGGGAGTCGTGCCATG [PEP 3.15],binding signal,"[1]; Y phenol-dU [14,25,27,43 (amine-dU), 19,46 (phenol-dU), 36 (indole-dU)], negative peptide 39",9
TTTTTAACACGACTTGGGTTCGGAAGGCGAACCGCAGCAATGTGGGCCCATG [PEP 1.22],binding signal,"[1]; Y phenol-dU [amine-dU @14, phenol-dU @15,20, indole-dU @19], negative peptide 2",8
TTTTTAAGCCCACAAAAGTTCGGGCAGCACAGGTCGCTGAGGTCGTGCCATG [PEP 4.14],binding signal,"[1]; Y phenol-dU [19,38 indole-dU, 20,34,46 phenol-dU, 43 amine-dU], negative peptide 15",2
TTTTTAAGCCCACAAGCGTTCGGCTCTCATAGATCGTTGACGTGGGCCCATG [PEP 4.19],binding signal,"[1]; Y phenol-dU [19,20,25,27,34,38], negative peptide 0",0
TTTTTAAGCCCACACGTGTTCGGATCGCACAGTTATTGGCAGTCGTGCCATG [PEP 4.20],binding signal,"[1]; Y phenol-dU [17,19,20,25,34,36,43,46], negative peptide 3",4
TTTTTAAGCCCACATACGTTCGATGGTCACAGATTGGGCAAGTCGTGCCATG [PEP 2.02],binding signal,"[2]; Y phenol modified dU [15,19,20,24,27,34,35,43,46]",55 ELISA signal
TTTTTAAGCCCACATAGGTTCGGTGGTCACAGTGTGGTGCGGTGGGCCCATG [PEP 2.16],binding signal,"[1]; Y phenol-dU [15,19,20,24,27,35,38], negative peptide 5",4
TTTTTAAGCCCACATGCCTGTGGTCATCGAACATTGGGCCGGTCGTGCCATG [PEP 2.13],binding signal,"[1]; Y phenol-dU [15,19,24,27,34,35,43,46], negative peptide 11",0
TTTTTAAGCCCACCAGGGTTCGGGAGCCGAACGCCAGCACTGTCGTGCCATG [PEP 3.24],binding signal,"[1]; Y phenol-dU [19 (indole-dU), 20,46 (phenol-dU), 43 (amine-dU)], negative peptide 22",5
TTTTTAAGCCCACCCGAGTTCGTCCAGCGAACCACGCGCGTGTCGTGCCATG [PEP 4.11],binding signal,"[2]; Y phenol modified dU [19,20,23,43,46]",0 ELISA signal
TTTTTAAGCCCACCTCACTGTGCAAGTCACAGGTCGGCACCGTGGGCCCATG [PEP 3.23],binding signal,"[1]; Y phenol-dU [15,19,34 (phenol-dU), 27 (amine-dU)], negative peptide 35",5
TTTTTAAGCCCACCTGACTGTGGTGGGCACAGTTCGCCATCGTGGGCCCATG [PEP 1.14],binding signal,"[1]; Y phenol-dU [15 phenol-dU, 19 phenol-dU, 24 indole-dU, 34 phenol-dU, 40 indole-dU], negative peptide 5",2
TTTTTAAGCCCACGACACTGTGGCCAACACAGTACATGCATGTGGGCCCATG [PEP 3.07],binding signal,"[1]; Y phenol-dU [phenol-dU@19], negative peptide 64",10
TTTTTAAGCCCACGCCAGTTCGGTCAACGAACTACGGTGATGTGGGCCCATG [PEP 4.17],binding signal,"[1]; Y phenol-dU [19,20,24,38], negative peptide 0",0
TTTTTAAGCCCACGGCCGTTCGGCCACCACAGTGTGGCAGCGTCGTGCCATG [PEP 4.13],binding signal,"[1]; Y phenol-dU [19 indole-dU, 20,35,46 phenol-dU, 43 amine-dU], negative peptide 0",0
TTTTTAAGCCCACGGGGCTGTGAGCAACGAACATTGGCACAGTCGTGCCATG [PEP 4.21],binding signal,"[1]; Y phenol-dU [19,34,35,43,46], negative peptide 8",0
TTTTTAAGCCCACGGGTCTGTGGTCACCGAACGACGTGGCAGTGGGCCCATG [PEP 2.14],binding signal,"[1]; Y phenol-dU [17,19,24], negative peptide 7",2
TTTTTAAGCCCACGGGTGTTCGACAGACACAGCAATACATCGTGGGCCCATG [SNAP.03],binding signal,"[2]; Y phenol modified dU [17,19,20,36,40]",21 ELISA signal
TTTTTAAGCCCACGGTGCTGTGGAAGCCACAGTACAATGGAGTGGGCCCATG [PEP 4.22],binding signal,"[1]; Y phenol-dU [16,19,38], negative peptide 3",5
TTTTTAAGCCCACGTTTGTTCGGTGGTCACAGCACGCCACGGTCGTGCCATG [PEP 2.08],binding signal,"[1]; Y phenol-dU [15,16,17,19,20,24,27,43,46], negative peptide 9",8
TTTTTAAGCCCACTGGCCTGTGGTCAGCGAACTGTGCGCTGGTGGGCCCATG [PEP 2.10],binding signal,"[1]; Y phenol-dU [14,19,24,35,40], negative peptide 2",7
TTTTTAAGCCCACTTCACTGTGGCTCGCACAGGCCGATGGGGTCGTGCCATG [PEP 1.23],binding signal,"[1]; Y phenol-dU [amine-dU @14,25,43, phenol-dU @15,19,46, indole-dU @38], negative peptide 0",0
TTTTTAAGCCCACTTGGCTGTGCACATCACAGAACAAGCAGGTGGGCCCATG [PEP 2.11],binding signal,"[1]; Y phenol-dU [14,15,19,27], negative peptide 2",0
